According to patent publication US20240350597A1, “PROTEASE INHIBITORS” (University College Dublin, priority 2023, published 2024):
Entries after “also recorded” stand apart in the source; their conditions may differ. Read-outs that look alike come from different tables or passages of the source.

What was measured:
Omicron BA.5 SARS-CoV-2 = format: cell-based
[1] = test system: SARS-CoV-2 Spike pseudoparticles; format: cell-based
Cathepsin L (CatL) = molecular target: T1, Cathepsin L (CatL) (Homo sapiens, UniProt P07711); test: Protease inhibition assay, fluorogenic substrate cleavage, cathepsin L; format: biochemical; details: excess of serpin over protease, 2 min incubation, substrate Z-FR-AMC
T1 construct: gift: Dr Matej Vizovišek, Jozef Stefan Institute, Slovenia
T1 sequence (P07711 114-333): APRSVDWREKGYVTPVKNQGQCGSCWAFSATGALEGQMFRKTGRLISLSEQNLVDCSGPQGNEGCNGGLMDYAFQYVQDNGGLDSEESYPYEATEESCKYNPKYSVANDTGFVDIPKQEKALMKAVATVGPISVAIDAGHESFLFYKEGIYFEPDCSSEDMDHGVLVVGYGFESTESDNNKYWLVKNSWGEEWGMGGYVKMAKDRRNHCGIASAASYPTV
Experimental: By monitoring the linear rate of cleavage of fluorogenic substrates, protease specificity of purified proteins was assessed. CatL was gifted by Dr Matej Vizovišek, Jozef Stefan Institute, Slovenia. TMPRSS2 was obtained from Cusabio Technology and furin from BioLegend.
Proteases were incubated with a 1:5 molar excess of serpin and residual activity was determined by cleavage of fluorescent substrates. All assays were carried out at room temperature in 96-well plates in a total volume of 100 μL. Residual proteolytic activity was measured using a SpectraMax M3 Microplate Reader (Molecular Devices, Inc), using the appropriate buffer and synthetic fluorogenic peptide substrate: Cathepsin L, Z-FR-AMC (10 μM), 50 mM Na-Acetate, 100 mM NaCl, 1 mM EDTA, pH 5.5; Chymotrypsin, Z-AAPF-AMC (5 μM), PBS, 1 mg/ml BSA; Elastase, Met-O-Suc-AAPV-AMC (10 μM), 50 mM Tris, 120 mM NaCl, pH 8.0, 1 mg/ml BSA; Furin, Boc-RVRR-AMC (50 μM) 20 mM Tris, 1 mM CaCl2), 0.5% Brij-35, pH 9; TMPRSS2, Boc-QAR-AMC (80 μM), PBS; Trypsin, Z-FR-AMC (10 μM), 50 mM Tris, 0.2 mM DTT, 1 mg/ml BSA. The excitation and emission wavelengths used were 380 nm and 460 nm respectively. All assays were performed in triplicate.

TMPRSS2 [2] = molecular target: T2, TMPRSS2 (Homo sapiens, UniProt O15393); format: biochemical; design: purchased Cusabio Technology
T2 sequence (O15393 whole entry): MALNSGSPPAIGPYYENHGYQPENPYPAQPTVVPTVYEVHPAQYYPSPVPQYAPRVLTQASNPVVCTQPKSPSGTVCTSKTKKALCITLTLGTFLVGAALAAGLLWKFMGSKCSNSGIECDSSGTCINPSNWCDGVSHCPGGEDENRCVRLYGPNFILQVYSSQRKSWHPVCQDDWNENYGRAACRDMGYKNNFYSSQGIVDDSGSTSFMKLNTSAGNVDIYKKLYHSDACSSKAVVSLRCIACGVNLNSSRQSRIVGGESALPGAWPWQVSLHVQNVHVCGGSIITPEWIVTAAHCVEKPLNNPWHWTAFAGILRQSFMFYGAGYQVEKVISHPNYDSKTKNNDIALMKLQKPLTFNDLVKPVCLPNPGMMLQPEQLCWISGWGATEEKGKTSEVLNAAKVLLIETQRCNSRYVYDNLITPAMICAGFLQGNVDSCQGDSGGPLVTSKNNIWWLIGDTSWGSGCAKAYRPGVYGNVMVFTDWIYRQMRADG

TMPRSS2 [3] = molecular target: T2, TMPRSS2; test: Kinetic analysis of TMPRSS2 inhibition under pseudo first-order conditions; format: biochemical; design: purchased Cusabio Technology; details: room temperature, TMPRSS2 0.1 μM
Experimental: For kinetic analysis of TMPRSS2 inhibition, second order inhibition rate constants were determined under pseudo first-order conditions using a range of serpin concentrations, and with TMPRSS2 buffer and substrate detailed above. Reactions were performed at room temperature and residual activity was determined at intervals over a 10 min incubation with a molar excess of serpin over protease. Concentration ranges were 0.12 to 0.44 μM for B3-TMP and 1.0 to 4 μM for A1AT. The apparent first order rate constant kobs for each concentration was calculated from the slope of the natural log of residual activity over time (−kobs). These values were plotted against inhibitor concentration and linear regression analysis of this plot gave the second order inhibition rate constant k2, with standard error determined.

B1: B3-TMP: SerpinB3 variant with RCL residues 350 to 354 (P4 to P1′) replaced by IQFRV to inhibit TMPRSS2; SEQ ID No. 6 (protein)
chain: MNSLSEANTKFMFDLFQQFRKSKENNIFYSPISITSALGMVLLGAKDNTAQQIKKVLHFDQVTENTTGKAATYHVDRSGNVHHQFQKLLTEFNKSTDAYELKIANKLFGEKTYLFLQEYLDAIKKFYQTSVESVDFANAPEESRKKINSWVESQTNEKIKNLIPEGNIGSNTTLVLVNAIYFKGQWEKKFNKEDTKEEKFWPNKNTYKSIQMMRQYTSFHFASLEDVQAKVLEIPYKGKDLSMIVLLPNEIDGLQKLEEKLTAEKLMEWTSLQNMRETRVDLHLPRFKVEESYDLKDTLRTMGMVDIFNGDADLSGMTGSRGLVLSGVLHKAFVEVTEEGAEAAAATAVIQFRVSPTSTNEEFHCNHPFLFFIRQNKTNSILFYGRFSSP
Omicron BA.5 SARS-CoV-2
  inhibition of SARS-CoV-2 Omicron BA.5 infection (in words): greater inhibitor for both viral strains than WT-SerpinB3; also recorded: inhibit Omicron BA.5 infection to a greater extent than the B3-WT
[1]; 6.25 μM to 50 μM, A549-ACE2-TMPRSS2 cells
  inhibition of pseudoparticle entry (in words): reduce SARS-CoV-2 (D614G) pseudoparticle entry
[1]; 12.5 μM, A549-ACE2-TMPRSS2 cells
  inhibition of pseudoparticle entry: 70%
[1]; 50 µM
  inhibition of pseudoparticle entry: 90%
Cathepsin L (CatL)
  CatL inhibition: 81%
TMPRSS2 [2]
  selectivity for TMPRSS2 versus elastase, trypsin, chymotrypsin (in words): better selectivity for TMPRSS2 than A1AT
TMPRSS2 [3]
  second order inhibition rate constant k2 of TMPRSS2 inhibition: (9±1.1)×10^3 M^−1 s^−1

B2: B3-WT: Wild type recombinant SerpinB3 (SCCA-1), 44.5 kDa cross-class inhibitor of cysteine proteases including CatL; SEQ ID No. 5 (protein, listed as Homo sapiens)
chain: MNSLSEANTKFMFDLFQQFRKSKENNIFYSPISITSALGMVLLGAKDNTAQQIKKVLHFDQVTENTTGKAATYHVDRSGNVHHQFQKLLTEFNKSTDAYELKIANKLFGEKTYLFLQEYLDAIKKFYQTSVESVDFANAPEESRKKINSWVESQTNEKIKNLIPEGNIGSNTTLVLVNAIYFKGQWEKKFNKEDTKEEKFWPNKNTYKSIQMMRQYTSFHFASLEDVQAKVLEIPYKGKDLSMIVLLPNEIDGLQKLEEKLTAEKLMEWTSLQNMRETRVDLHLPRFKVEESYDLKDTLRTMGMVDIFNGDADLSGMTGSRGLVLSGVLHKAFVEVTEEGAEAAAATAVVGFGSSPTSTNEEFHCNHPFLFFIRQNKTNSILFYGRFSSP
Omicron BA.5 SARS-CoV-2
  inhibition of SARS-CoV-2 Omicron BA.5 infection (in words): reductions in SARS-CoV-2 infection
Cathepsin L (CatL)
  CatL inhibition: 95%
